Experimental findings from paper PMC13053990 are described below.

Test [1] addresses EGFP-miPEP8 SLiMmt (mutated SLiM MOD_Plk1/MOD_Plk4) (Drosophila melanogaster). Description: affinity purification with mass spectrometry; GFP-Trap agarose beads O/N at 4 °C on lysates of S2 cells transfected with EGFP, EGFP-miPEP8 or EGFP-miPEP8 SLiMmt; lysis buffer 50 mM Tris pH 7.5, 50 mM NaCl, 5% glycerol, 0.1% Igepal; four washes; LC-MS/MS, MaxQuant.
Test [2] has as its target miPEP8 fused on its C-terminus to the N-terminal fragment of luciferase (N-Luc) (Drosophila melanogaster). As to the kind of experiment: split reporter (BiFC, NanoBiT); split firefly luciferase in S2 cells: miPEP8 or Ey fused to N-Luc, candidates or Antp fused to C-Luc; 48 h after transfection, D-luciferin, luminescence normalised; negative control: the two fragments not fused to any protein.

B1: ref(2)P (refractory to sigma P), the orthologue of the human p62/Sequestosome 1 protein (natural protein)
chain: MPEKLLKITYQGAGPQKKINAYLRMPSQNYTILRREIELYLFQERQLPKCDVRTFWIDADKDEIEIVNQNDYEIFLAKCESNMHVQVAPLAPVEEPKATKQEGSSANAEAPSVDDPSNFTIHDAVECDGCGLAPLIGFRYKCVQCSNYDLCQKCELAHKHPEHLMLRMPTNNGPGMVDAWFTGPGLGRRSGRRSRGHCPFQETNQADPAGEPARDSRRERRQARRHAGVLTQFVEMMTNLPLNTTTATAPAEPQKPKAAEQTESPPQAEPTVTAEKAAESEAKPTEPKKVNTDQSVPRTEDPVTTPRSTQPTTPVINLDNISQIVPPEYMSAGIEILNNFSEMFSKIIDTTEGGDSGIFAPSTTPSAENKKPEEQGQSSGQSGASSANQSAVPSAAPSANQSNVPSANQSATPSISGSIPDAQLETEPLNPKPSETTTETEQERRRSDSLDPEWQLIDNAYSANNSNLINLDTTNPTAAPQEPVRDFGQLGELLRQHMNEEARVEQASANTQTAQVDTVSTSTSTTSVTTNSVGTSPAAPDDKRTVPVYHTDESINKSIHAMMAMGFSNEGAWLTQLLESVQGNISAALDVMNVSQNRN
B1 had a fold decrease of the interaction against EGFP-miPEP8 (MS intensity) in test [1] of 2.8 fold.

B2: PI3K92 E fused with the C-terminal fragment of the luciferase (natural protein)
chain: MNMMDNRALAYVAHQPKYETPPEEAEPPCMRFSVNLWKNEMLNWVDLICLLPNGFLLELRVNPANTIQVIKVEMVNQAKQMPLGYVIKEACEYQVYGISTFNIEPYTDETKRLSEVQPYFGILSLGERTDTTSFSSDYELTKMVNGMIGTTFDHNRTHGSPEIDDFRLYMTQTCDNIELERSAYTWQQRLLYEHPLRLANSTKMPELIRERHPTRTFLIVVKNENDQSTFTLSVNEQDTPFSLTESTLQKMNRSQMKMNDRTSDYILKVSGRDEYLLGDYPLIQFLYIQEMLSDSAVPNVVLQSVYRLESYINHHNEQAMVTKRPLPKKRTVHLHKSISSLWDMGNYFQLTLHSISNVNFDKTRALKVGVHVCLYHGDKKLCAQRSTDSPNGNFDTFLFNDLVMDFDIQMRNLPRMTRLCIVIFEVTKMSRSKKSSNNKDIALKDVPYNKNPLAWVNTTIFDHKDILRTGRHTLYTWTYADDIQSVEVFHPLGTIEPNPRKEECALVDLTFLSSGTGTVRYPSEEVVLQYAADREQVNRLQRQLAGPEKPIKELKELMANYTGLDKIYEMVDQDRNAIWERRNDILRELPEELSILLHCVYWKERDDVADMWYLLKQWPLISIERSLELLDYAYPDPAVRRFAIRCLHFLKDEDLLLYLLQLVQAIKHESYLESDLVVFLLERALRNQRIGHYFFWHLRSEMQTPSMQTRFGLLLEVYLKGCKHHVAPLRKQLHVLEKLKQGSLIAKKGSKEKVKTMLQDFLRDQRNSAVFQNIQNPLNPSFRCSGVTPDRCKVMDSKMRPLWVVFENADVNASDVHIIFKNGDDLRQDMLTLQMLRVMDQLWKRDGMDFRMNIYNCISMEKSLGMIEVVRHAETIANIQKEKGMFSATSPFKKGSLLSWLKEHNKPADKLNKAINEFTLSCAGYCVATYVLGVADRHSDNIMVKRNGQLFHIDFGHILGHFKEKLGVRRERVPFVLTHDFVYVINKGFNDRESKEFCHFQELCERAFLVLRKHGCLILSLFSMMISTGLPELSSEKDLDYLRETLVLDYTEEKAREHFRAKFSEALANSWKTSLNWASHNFSKNNKQ
The molecule B2 came in with a luminescence signal, times the negative control (times the negative control) in test [2] of 4.6.
